This note sets out measurements from publication PMC9709071.

For one experiment, the target named is DcR3 (UniProt O95407). The experiment can be described thus: ELISA; receptor (DR3-Fc; DcR3) immobilised on Maxisorp plates, TL1A variant titrated in 3-fold dilutions, overnight 4 °C, detected with anti-human TL1A-biotin and streptavidin-HRP; concentrations normalised to TL1A trimer; triplicate. For orientation: ELISA stands for enzyme-linked immunosorbent assay.

Another experiment deals with Recombinant DR3-Fc (UniProt Q93038). The description is as above.
Recombinant DR3-Fc, sequence (Q93038 25-199): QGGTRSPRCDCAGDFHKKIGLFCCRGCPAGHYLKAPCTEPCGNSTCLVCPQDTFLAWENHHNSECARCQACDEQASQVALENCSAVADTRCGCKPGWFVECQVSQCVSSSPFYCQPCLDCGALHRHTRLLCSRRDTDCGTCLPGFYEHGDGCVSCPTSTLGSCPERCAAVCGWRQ

pEC50: −log10 of the molar value.

DcR3, sequence (O95407 30-300): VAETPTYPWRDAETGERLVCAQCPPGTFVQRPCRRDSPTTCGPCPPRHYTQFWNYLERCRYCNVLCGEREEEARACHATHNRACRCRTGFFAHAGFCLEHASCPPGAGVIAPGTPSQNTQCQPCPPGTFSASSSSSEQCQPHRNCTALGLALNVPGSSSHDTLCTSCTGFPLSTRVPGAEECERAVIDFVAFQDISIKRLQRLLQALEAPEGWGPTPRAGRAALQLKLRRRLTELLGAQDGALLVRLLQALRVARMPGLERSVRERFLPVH

In the experiment with DcR3, “TL1W33 (E241L) (from UniProt O95150 1-251) (ligand)” showed a negative-log EC50 (pEC50) of 8.24.

As for “TL1W111 (S187D) (from UniProt O95150 1-251) (ligand)”, the results for the pEC50 in the experiment with DcR3 and with Recombinant DR3-Fc were 7.78 and 7.35, respectively.

In the case of “TL1W46 (T239W) (from UniProt O95150 1-251) (ligand)”, in the experiment with Recombinant DR3-Fc, the pEC50 was 6.55.

Regarding “TL1W132 (T239A) (from UniProt O95150 1-251) (ligand)”, the pEC50 with DcR3 was 7.57; in the experiment with Recombinant DR3-Fc, 6.84.

Take “TL1W31 (R103Q) (from UniProt O95150 1-251) (ligand)”: the pEC50 with DcR3 is 8.60; with Recombinant DR3-Fc, 8.02.

For the substance “TL1W110 (S187K) (from UniProt O95150 1-251) (ligand)”, the negative logarithm of the EC50 (pEC50) in the experiment with DcR3 was 7.80; with Recombinant DR3-Fc it was 7.47.

Take “TL1W29 (P189A) (from UniProt O95150 1-251) (ligand)”: the negative logarithm of the EC50 (pEC50) was 8.12 with DcR3 and 6.15 in the experiment with Recombinant DR3-Fc.

“TL1W117 (T192E) (from UniProt O95150 1-251) (ligand)”: the pEC50 with DcR3 is 7.92; with Recombinant DR3-Fc it was 6.95.

Substance “TL1W128 (Y238S) (from UniProt O95150 1-251) (ligand)” gave a pEC50 in the experiment with DcR3 of 7.98.

With “TL1W108 (S187A) (from UniProt O95150 1-251) (ligand)”, the pEC50 with Recombinant DR3-Fc is 7.41.

Consider “TL1W44 (P189K) (from UniProt O95150 1-251) (ligand)”, for which the pEC50 in the experiment with DcR3 was 7.23; with Recombinant DR3-Fc, 6.78.

As to “TL1W37 (L123E) (from UniProt O95150 1-251) (ligand)”, the figures for the pEC50 in the experiment with DcR3 and with Recombinant DR3-Fc were 7.61 and 6.37, respectively.

“TL1W114 (T192A) (from UniProt O95150 1-251) (ligand)”: the pEC50 with DcR3 was 8.00; in the experiment with Recombinant DR3-Fc, 7.63.

Take “TL1W139 (E241Q) (from UniProt O95150 1-251) (ligand)”: in the experiment with DcR3, the negative logarithm of the EC50 (pEC50) was 7.76.

Consider “TL1W47 (E241A) (from UniProt O95150 1-251) (ligand)”, for which the negative logarithm of the EC50 (pEC50) is 5.88 in the experiment with DcR3 and 6.59 in the experiment with Recombinant DR3-Fc.

“TL1W134 (T239K) (from UniProt O95150 1-251) (ligand)” gave a negative logarithm of the EC50 (pEC50) with DcR3 of 7.67.

In the case of “TL1W101 (S176N) (from UniProt O95150 1-251) (ligand)”, the pEC50 with DcR3 is 7.69.

Consider “TL1W87 (G124D) (from UniProt O95150 1-251) (ligand)”, for which the negative-log EC50 (pEC50) with Recombinant DR3-Fc is 7.83.

Take “TL1W89 (R156Y) (from UniProt O95150 1-251) (ligand)”: the pEC50 with DcR3 was 8.10.

With “TL1W25 (N207A) (from UniProt O95150 1-251) (ligand)”, the pEC50 in the experiment with DcR3 was 8.43; with Recombinant DR3-Fc it was 7.87.

In the case of “TL1W121 (S206E) (from UniProt O95150 1-251) (ligand)”, the negative-log EC50 (pEC50) with DcR3 is 7.76; with Recombinant DR3-Fc, 6.98.

As for “TL1W118 (S206A) (from UniProt O95150 1-251) (ligand)”, the pEC50 with DcR3 is 8.06; in the experiment with Recombinant DR3-Fc it was 7.38.

Turning to “TL1W81 (K111S) (from UniProt O95150 1-251) (ligand)”, the pEC50 in the experiment with DcR3 is 7.29; with Recombinant DR3-Fc it was 7.46.

In the experiment with DcR3, “TL1W83 (E120K) (from UniProt O95150 1-251) (ligand)” showed a pEC50 of 8.66.

Consider “TL1W85 (G124S) (from UniProt O95150 1-251) (ligand)”, for which the values for the pEC50 with DcR3 and in the experiment with Recombinant DR3-Fc were 7.24 and 6.53, respectively.

For the substance “TL1W32 (Y188A) (from UniProt O95150 1-251) (ligand)”, the pEC50 is 8.12 with DcR3 and 6.25 in the experiment with Recombinant DR3-Fc.

On to “TL1W126 (F209W) (from UniProt O95150 1-251) (ligand)”, for which the pEC50 is 7.86 with DcR3 and 7.25 with Recombinant DR3-Fc.

Regarding “TL1W78 (R103H) (from UniProt O95150 1-251) (ligand)”, the pEC50 with DcR3 was 8.09; in the experiment with Recombinant DR3-Fc, 7.11.

Regarding “TL1W99 (S176A) (from UniProt O95150 1-251) (ligand)”, the figures for the pEC50 in the experiment with DcR3 and with Recombinant DR3-Fc were 7.94 and 7.46, respectively.

For the substance “TL1W100 (S176L) (from UniProt O95150 1-251) (ligand)”, the pEC50 with DcR3 was 7.82; with Recombinant DR3-Fc it was 6.49.

For “TL1W130 (Y238R) (from UniProt O95150 1-251) (ligand)”, the pEC50 with DcR3 is 7.77.

As for “TL1W124 (N207k) (from UniProt O95150 1-251) (ligand)”, the pEC50 with DcR3 was 7.81; with Recombinant DR3-Fc, 6.96.

With “TL1W28 (E190G) (from UniProt O95150 1-251) (ligand)”, the pEC50 with DcR3 is 8.24; with Recombinant DR3-Fc, 7.65.

“TL1W107 (D186Y) (from UniProt O95150 1-251) (ligand)”: the pEC50 was 8.21 with DcR3 and 7.20 with Recombinant DR3-Fc.

Substance “TL1W27 (T239E) (from UniProt O95150 1-251) (ligand)” showed a pEC50 with DcR3 of 7.46.

On to “TL1W86 (G124K) (from UniProt O95150 1-251) (ligand)”, for which the pEC50 with DcR3 was 8.54.

Consider “TL1W84 (E120H) (from UniProt O95150 1-251) (ligand)”, for which the pEC50 is 7.25 with DcR3 and 6.74 with Recombinant DR3-Fc.

In the case of “TL1W136 (K240F) (from UniProt O95150 1-251) (ligand)”, the pEC50 in the experiment with DcR3 is 6.75; with Recombinant DR3-Fc it was 6.58.

For the substance “TL1W103 (T185A) (from UniProt O95150 1-251) (ligand)”, the pEC50 is 7.94 in the experiment with DcR3 and 7.24 in the experiment with Recombinant DR3-Fc.

Regarding “TL1W119 (S206F) (from UniProt O95150 1-251) (ligand)”, the results for the pEC50 with DcR3 and in the experiment with Recombinant DR3-Fc were 8.09 and 7.06, respectively.

“TL1W106 (T185D) (from UniProt O95150 1-251) (ligand)”: the results for the pEC50 with DcR3 and with Recombinant DR3-Fc were 7.10 and 6.91, respectively.

As to “TL1W24 (F209A) (from UniProt O95150 1-251) (ligand)”, the negative-log EC50 (pEC50) with DcR3 is 7.51; with Recombinant DR3-Fc it was 6.55.

“TL1W135 (K240A) (from UniProt O95150 1-251) (ligand)” gave a pEC50 with DcR3 of 8.07.

As to “TL1W40 (L123S) (from UniProt O95150 1-251) (ligand)”, the pEC50 was 7.79 with DcR3 and 7.51 with Recombinant DR3-Fc.

For the substance “TL1W137 (K240S) (from UniProt O95150 1-251) (ligand)”, the pEC50 with DcR3 is 7.93; with Recombinant DR3-Fc it was 6.47.

Consider “TL1W115 (T192F) (from UniProt O95150 1-251) (ligand)”, for which the pEC50 in the experiment with DcR3 was 7.97; with Recombinant DR3-Fc, 7.85.

Substance “TL1W133 (T239F) (from UniProt O95150 1-251) (ligand)” had a pEC50 with DcR3 of 7.97.

Turning to “TL1W82 (K111E) (from UniProt O95150 1-251) (ligand)”, the pEC50 is 7.97 with DcR3 and 7.59 in the experiment with Recombinant DR3-Fc.

Take “TL1W90 (R156K) (from UniProt O95150 1-251) (ligand)”: the pEC50 is 7.96 in the experiment with DcR3 and 6.73 with Recombinant DR3-Fc.

Regarding “TL1W93 (M158K) (from UniProt O95150 1-251) (ligand)”, the pEC50 in the experiment with DcR3 is 7.25; with Recombinant DR3-Fc, 7.65.

With “TL1W96 (R170E) (from UniProt O95150 1-251) (ligand)”, the figures for the pEC50 in the experiment with DcR3 and with Recombinant DR3-Fc were 7.79 and 7.06, respectively.

For “TL1W105 (T185N) (from UniProt O95150 1-251) (ligand)”, the pEC50 in the experiment with DcR3 was 7.95; with Recombinant DR3-Fc, 6.75.

“TL1W112 (P189F) (from UniProt O95150 1-251) (ligand)”: the pEC50 with DcR3 is 7.18; with Recombinant DR3-Fc, 6.69.

For the substance “TL1W131 (Y238E) (from UniProt O95150 1-251) (ligand)”, the values for the pEC50 with DcR3 and in the experiment with Recombinant DR3-Fc were 8.18 and 6.52, respectively.

As for “TL1W102 (S176K) (from UniProt O95150 1-251) (ligand)”, the pEC50 with DcR3 was 7.53; with Recombinant DR3-Fc, 6.74.

For “TL1W113 (P189S) (from UniProt O95150 1-251) (ligand)”, the pEC50 with DcR3 is 7.70; with Recombinant DR3-Fc, 6.00.

“TL1W120 (S206K) (from UniProt O95150 1-251) (ligand)”: the pEC50 with DcR3 is 7.04; in the experiment with Recombinant DR3-Fc it was 6.94.

Turning to “TL1W79 (R103E) (from UniProt O95150 1-251) (ligand)”, the pEC50 was 8.15 with DcR3 and 6.69 with Recombinant DR3-Fc.

“TL1W138 (K240D) (from UniProt O95150 1-251) (ligand)”: the pEC50 with DcR3 was 7.23.

The substance “TL1W88 (R156A) (from UniProt O95150 1-251) (ligand)” showed a pEC50 in the experiment with DcR3 of 7.87.

Turning to “TL1W94 (M158E) (from UniProt O95150 1-251) (ligand)”, the pEC50 is 7.73 with DcR3 and 7.23 with Recombinant DR3-Fc.

“TL1W33 (R103A) (from UniProt O95150 1-251) (ligand)”: the pEC50 with DcR3 is 8.48; in the experiment with Recombinant DR3-Fc, 7.60.

For the substance “TL1W91 (R156E) (from UniProt O95150 1-251) (ligand)”, in the experiment with DcR3, the pEC50 is 8.08.

Turning to “TL1W43 (Y188S) (from UniProt O95150 1-251) (ligand)”, the negative-log EC50 (pEC50) with DcR3 is 7.14; with Recombinant DR3-Fc it was 6.68.

Consider “TL1W116 (T192K) (from UniProt O95150 1-251) (ligand)”, for which the pEC50 in the experiment with DcR3 was 7.63; with Recombinant DR3-Fc, 7.11.

On to “TL1W39 (L123G) (from UniProt O95150 1-251) (ligand)”, for which the figures for the pEC50 in the experiment with DcR3 and with Recombinant DR3-Fc were 7.42 and 6.73, respectively.

Regarding “TL1W125 (N207E) (from UniProt O95150 1-251) (ligand)”, the negative-log EC50 (pEC50) with DcR3 is 8.01; with Recombinant DR3-Fc it was 6.30.

Consider “TL1W127 (Y238A) (from UniProt O95150 1-251) (ligand)”, for which the pEC50 is 8.05 with DcR3 and 5.33 with Recombinant DR3-Fc.

On to “TL1W97 (K173S) (from UniProt O95150 1-251) (ligand)”, for which the pEC50 in the experiment with DcR3 was 8.17; in the experiment with Recombinant DR3-Fc, 6.88.

The term pEC50 denotes −log10 of the EC50, conventionally taken in molar units.
